Target: T1, SΔTM deglycosylated by PNGase F (trimeric spike protein without transmembrane domain) (SARS-CoV-2 Wuhan-Hu-1, UniProt P0DTC2, stabilised, deglycosylated by PNGase F)
T1 construct: also called nonglycosylated SΔTM; deglycosylated spike protein
Experiment: western blotting
Settings: both partners purified

B1: mouse anti-SARS-CoV-2 spike monoclonal antibody clone R31 (antibody, V domains shown)
VH: QVQLQQSGAELVRPGTSVKISCKASYTFTNYWLAWVKQRPGHGLEWIGDIYPGGAYTNFNEKFKGKATLTADTSSSTAYMQLSSLTSEDSAVYFCARDGHYGYAMDYWGQGTSVTVSS
VL: DIVMTQAAFSNPVTLGTSASISCRSSKSLLHSNGITYLYWYLQKPGQSPQLLIYQMSDLASGVPDRFSSSGSGTDFTLRISRVEAEDVGVYYCAQNLELPRTFGGGIKLEIK
- binding result: binds

From paper PMC7846482 (The Journal of Biological Chemistry, 2021)
